Data reported in article PMC2171544.

Molecular target: recombinant Xenopus TACC3/maskin (TACC3-WT), full length, His6-tagged (Xenopus laevis) (UniProt Q9PTG8)
Test: sucrose density gradient centrifugation + SEC

recombinant Xenopus TACC3/maskin (TACC3-WT), full length, His6-tagged (Xenopus laevis), sequence (Q9PTG8 whole entry): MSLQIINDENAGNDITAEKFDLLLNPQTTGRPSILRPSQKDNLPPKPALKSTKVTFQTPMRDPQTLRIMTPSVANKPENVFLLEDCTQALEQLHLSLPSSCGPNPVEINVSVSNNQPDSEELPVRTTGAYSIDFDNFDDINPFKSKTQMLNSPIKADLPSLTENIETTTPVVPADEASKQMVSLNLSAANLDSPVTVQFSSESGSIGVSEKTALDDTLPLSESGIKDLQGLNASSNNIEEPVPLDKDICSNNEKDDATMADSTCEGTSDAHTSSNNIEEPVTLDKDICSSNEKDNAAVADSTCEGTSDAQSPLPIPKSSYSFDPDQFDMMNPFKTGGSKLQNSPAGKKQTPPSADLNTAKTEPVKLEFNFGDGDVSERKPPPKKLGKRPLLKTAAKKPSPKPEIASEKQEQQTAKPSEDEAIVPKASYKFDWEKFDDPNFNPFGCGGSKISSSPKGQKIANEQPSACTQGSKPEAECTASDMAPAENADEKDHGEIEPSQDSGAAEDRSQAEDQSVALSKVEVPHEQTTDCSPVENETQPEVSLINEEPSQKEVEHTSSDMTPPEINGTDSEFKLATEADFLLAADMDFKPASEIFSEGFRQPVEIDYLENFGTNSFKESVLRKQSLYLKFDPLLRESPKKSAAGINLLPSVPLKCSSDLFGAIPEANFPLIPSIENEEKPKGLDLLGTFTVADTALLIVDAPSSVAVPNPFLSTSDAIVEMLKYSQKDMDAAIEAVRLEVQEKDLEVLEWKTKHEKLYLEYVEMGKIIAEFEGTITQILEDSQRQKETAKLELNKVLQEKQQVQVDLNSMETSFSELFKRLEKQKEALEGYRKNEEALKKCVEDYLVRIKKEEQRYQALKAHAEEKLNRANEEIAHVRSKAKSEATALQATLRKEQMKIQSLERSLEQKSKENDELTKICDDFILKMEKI

**Q.** recombinant XMAP215, Q9PT63 1-2065 was tested. Which stoichiometry N did it give?
**A.** The stoichiometry N was 1.
